From US20150086555A1

Legend:
Conditions in all cases: remark: other sources report otherwise
[1] = biological target: recombinant soluble homotrimeric HA, A/Netherlands/219/03 H7N7 (Influenza A virus A/Netherlands/219/03(H7N7)); assay: microarray, transfection SN IgG, trimeric HA
[2] = biological target: recombinant soluble homotrimeric HA, A/swine/Ontario/01911-2/99 H4N6 (Influenza A virus A/Swine/Ontario/01911-2/99 (H4N6)); assay: microarray, transfection SN IgG, trimeric HA
[3] = biological target: recombinant soluble homotrimeric HA of A/Anhui/1/05 (H5N1) (Influenza A virus A/Anhui/1/2005(H5N1)); assay: trimeric HA microarray, transfection supernatant set 3
[4] = biological target: recombinant soluble homotrimeric HA of A/chicken/Vietnam/NCVD-016/08 (H5N1) (Influenza A virus A/chicken/Vietnam/NCVD-016/2008(H5N1)); assay: as above
[5] = biological target: recombinant soluble homotrimeric HA of A/Netherlands/219/03 (H7N7) (Influenza A virus A/Netherlands/219/03(H7N7)); assay: as above
[6] = biological target: recombinant soluble homotrimeric HA of A/Solomon Islands/3/06 (H1N1) (Influenza A virus A/Solomon Islands/3/2006(H1N1)); assay: as above
[7] = biological target: recombinant soluble homotrimeric HA of A/Indonesia/5/05 (H5N1) (Influenza A virus A/Indonesia/5/2005(H5N1)); assay: as above
[8] = biological target: recombinant soluble homotrimeric HA of A/Egypt/3300-NAMRU3/08 (H5N1) (Influenza A virus A/Egypt/3300-NAMRU3/2008(H5N1)); assay: as above
[9] = biological target: recombinant soluble homotrimeric HA of A/South Carolina/1/18 (H1N1) (Influenza A virus A/South Carolina/1/18 (H1N1)); assay: as above
[10] = biological target: recombinant soluble homotrimeric HA of A/California/4/09 (H1N1) (Influenza A virus A/California/04/2009(H1N1)); assay: as above
[11] = biological target: recombinant soluble homotrimeric HA of A/Vietnam/1203/04 (H5N1) (Influenza A virus A/VietNam/1203/2004(H5N1)); assay: as above
[12] = biological target: recombinant soluble homotrimeric HA of A/Japan/305/57 (H2N2) (Influenza A virus A/Japan/305/1957(H2N2)); assay: as above
[13] = biological target: recombinant soluble homotrimeric HA of A/Hong Kong/1073/99 (H9N2) (Influenza A virus A/Hong Kong/1073/99 (H9N2)); assay: trimeric HA microarray, transfection supernatant set 4

Row | Binder | Trimeric HA Binding: RLU [1] | Trimeric HA Binding: RLU [2] | Trimeric HA Binding: RLU [3] | Trimeric HA Binding: RLU [4] | Trimeric HA Binding: RLU [5] | Trimeric HA Binding: RLU [6] | Trimeric HA Binding: RLU [7] | Trimeric HA Binding: RLU [8] | Trimeric HA Binding: RLU [9] | Trimeric HA Binding: RLU [10] | Trimeric HA Binding: RLU [11] | Trimeric HA Binding: RLU [12] | Trimeric HA Binding: RLU [13]
1 | TCN-504 (3251_K17) (antibody, V domains shown) VH: QVQLQESGPGLVKPSETLSLTCAVSGVSISNIDFYWGWIRQPPGKGLEWIGNIYYTGITFYNPSLSSRVAISIDTSKNQFSLTLTSVTAADTAMYYCARHYGDSEAINDAFDIWGQGTMLTVSS VL: EIVMTQSPATLSVSPGERATLSCRASQSVGNSLAWYQQRPGQAPRLLIYGASTRATGIPPRFSGSGSGTEFTLTISSLQTEDFAVYYCQQYINWRPLSFGGGTKVEIK | 30600 RLU | 54800 RLU | 30000 RLU | 10300 RLU | 19600 RLU | 32700 RLU | 18600 RLU | 18000 RLU | 27600 RLU | 18600 RLU | 13300 RLU | 36000 RLU | –
2 | TCN-523 (5248_A17) (antibody, V domains shown) VH: QVQLVQSGAEVKKPGSSVKVSCKASGGSFSNYAFSWVRQAPGQGLEWMGGTIPLLGTTNYAQKFQGRVTISADQFTSTAYMELGSLRSEDTAVYYCTRRKMTTAFDSWGQGTLVTVSS VL: QPVLTQPPSASASLGASVTLTCTLSSAYSNYKVDWYQQRPGKGPRFVMRVGTGGIVGSKGDGIPDRFSVLGSGLNRYLTIKNIQEEDESDYHCGADHGSGSNFVSPYVFGGGTKLTVL | – | – | 546 RLU | 18900 RLU | 3140 RLU | 11000 RLU | 22000 RLU | 29100 RLU | 23700 RLU | 19400 RLU | 22100 RLU | 4550 RLU | 24600 RLU
3 | TCN-535 (5246_P19) (antibody, V domains shown) VH: QVQLVQSGSEVKKPGTSVKVSCTASGSVFTNYGISWVRQAPGQGLEWMGGIIPLFGAAKYAQKFQGRVTITADESTKTVYMELSRLTSKDTAIYFCAKAPRVYEYYFDQWGQGTPVTVSS VL: EIVLTQSPGTLSLSPGERATLSCRASQSVSSSQLAWYQQKPGQAPRLIIYGASTRATGIPDRFSGSGSGTDFTLTIGRLEPEDFAVFFCQQYSTSPPTFGQGTKVDFK | – | – | – | – | – | – | – | – | – | – | – | – | 21200 RLU
4 | TCN-534 (5249_B02) (antibody, V domains shown) VH: QVQLVQSGAEVKKPGSSVKVSCRESGGTFNGYTITWVRQAPGQGLEWMGGIIPMMGTVNYAQKLQGRVTITTDYFTKTAYMDLNNLRSEDTAMYYCVKIRYTGQQLLWGQGTLVTVSS VL: DIQMTQSPSTLSASIGDRVTITCRASQSIASWLAWYQQKPGKAPKLLIYEAVNLESGVPSRFSGSGSGTDFTLTISSLQPDDFATYFCQHYGTISQTFGGGTKVEIK | – | – | – | – | – | – | – | – | – | – | – | – | 731 RLU
5 | TCN-530 (5248_H10a) (antibody, V domains shown) VH: QVQLVQSGAEVRKPGSSVKVSCKASGGPFMSYAIGWVRQAPGQGLEWMGGINPVFGRPHYAQKFQGRVTIATDDSTKTSYMELSSLTSEDTGMYYCASRYSRSSPGTFESWGQGTLVTVSS VL: EIVMTQFPATLSVSPGERVTLSCRASQSVSNNLAWYQQKPGQPPRLLIYDASTRATGVPAKFSGTGSGTEFTLSISSLQSEDFAVYYCQQYHNWPPSYSFGLGTKLEIK | – | – | 97 RLU | 18000 RLU | 118 RLU | 13800 RLU | 25500 RLU | 25500 RLU | 17200 RLU | 21200 RLU | 25200 RLU | 5170 RLU | –
